Results: patent publication US20140086913A1 (Gilead, published 2014)

T1: human DDR2 stably expressed on HEK293 cells (human, UniProt Q16832 22-855)
T1 construct: whole, on cells; also called hDDR2
T1 sequence (looked up): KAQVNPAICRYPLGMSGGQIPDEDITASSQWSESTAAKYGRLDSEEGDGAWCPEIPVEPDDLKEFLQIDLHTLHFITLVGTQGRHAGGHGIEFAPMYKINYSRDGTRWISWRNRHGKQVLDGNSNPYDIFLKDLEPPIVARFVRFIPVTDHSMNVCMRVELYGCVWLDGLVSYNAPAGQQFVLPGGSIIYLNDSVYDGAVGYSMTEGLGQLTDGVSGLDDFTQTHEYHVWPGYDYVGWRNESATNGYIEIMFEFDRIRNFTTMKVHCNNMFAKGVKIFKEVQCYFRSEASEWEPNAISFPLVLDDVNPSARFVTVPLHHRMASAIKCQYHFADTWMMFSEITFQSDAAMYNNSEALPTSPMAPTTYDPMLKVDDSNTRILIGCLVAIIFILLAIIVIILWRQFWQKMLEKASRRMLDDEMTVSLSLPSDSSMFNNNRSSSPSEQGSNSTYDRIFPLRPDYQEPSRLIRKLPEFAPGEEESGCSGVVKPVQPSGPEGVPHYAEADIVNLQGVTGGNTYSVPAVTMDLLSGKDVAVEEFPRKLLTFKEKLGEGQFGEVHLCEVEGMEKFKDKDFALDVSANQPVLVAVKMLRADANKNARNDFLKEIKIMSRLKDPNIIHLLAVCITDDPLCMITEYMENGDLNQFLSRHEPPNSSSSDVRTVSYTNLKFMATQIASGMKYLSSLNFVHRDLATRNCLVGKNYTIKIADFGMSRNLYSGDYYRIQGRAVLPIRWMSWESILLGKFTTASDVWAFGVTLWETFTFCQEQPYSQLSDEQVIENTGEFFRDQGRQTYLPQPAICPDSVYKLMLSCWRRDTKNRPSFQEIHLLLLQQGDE


Key:
[1] = target: T2, human ECD-DDR1-His protein (human, UniProt Q08345 21-416); assay: ELISA, coated antigen, apparent KD
T2 construct: also called huDDR1-ECD-His; DDR1ECD-6Xhis; not shown: His tag
Summary of the method: (§1)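 Plates coated overnight at 4° C with 2 μg/mL purified tagged DDR1 ECD protein, BSA-blocked; serially diluted murine anti-DDR1 mAbs bound 1 hr at room temperature, detected with anti-mouse IgG-HRP and TMB (OD 450). Apparent KD taken as C-parameter of 4-parameter logistic fit of OD versus antibody concentration.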

[2] = target: T3, DDR1ECD-Fc (R&D Systems, Catalog #2396-DR) (human, UniProt Q08345 21-416); assay: ELISA, coated antigen, apparent KD
T3 construct: range 21-416; construct as described for the bought immunogen; also called human ECD-DDR1-Fc; Fc-ECD-DR1; not shown: human IgG1, Pro100-Lys330
Summary of the method: as §1

[3] = target: DDR1 endogenously expressed on human cancer cell lines (T47D, HCT-116, A431) (human) (UniProt Q08345); assay: flow cytometry, HCT116 cells
[4] = target: T3, DDR1ECD-Fc (R&D Systems, Catalog …); assay: ELISA
[5] = target: human DDR1 (isoform B) stably expressed on HEK293 cells (human) (UniProt Q08345); assay: flow cytometry, HEK293/hDDR1
[6] = target: DDR1 endogenously expressed on human cancer cell lines (T47D, HCT-116, A431) (human) (UniProt Q08345); assay: flow cytometry, T47D cells
[7] = target: T1, human DDR2 stably expressed on HEK293 …; assay: flow cytometry, HEK293/hDDR2
Summary of the method: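 Anti-DDR1 mAbs or isotype controls (2 μg per 1×10⁶ cells) were incubated with the stably transfected HEK293 cells at 4 °C for 1 hr, then detected with anti-IgG-PE at 4 °C for 1 hr. Binding was read as flow-cytometry MFI, with vector-only HEK293 background subtracted.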

T2 sequence (Q08345 21-416): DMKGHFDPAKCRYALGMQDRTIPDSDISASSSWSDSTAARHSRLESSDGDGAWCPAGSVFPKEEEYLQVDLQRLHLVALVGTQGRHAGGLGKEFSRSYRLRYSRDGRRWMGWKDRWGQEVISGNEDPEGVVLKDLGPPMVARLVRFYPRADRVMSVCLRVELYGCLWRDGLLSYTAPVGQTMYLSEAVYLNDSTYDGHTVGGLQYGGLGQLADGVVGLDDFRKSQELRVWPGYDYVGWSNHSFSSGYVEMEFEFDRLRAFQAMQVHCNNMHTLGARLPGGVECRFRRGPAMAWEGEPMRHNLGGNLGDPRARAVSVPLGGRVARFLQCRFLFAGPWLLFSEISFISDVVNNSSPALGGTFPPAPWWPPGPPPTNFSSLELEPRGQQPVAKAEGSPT
Sequence of human DDR1 (isoform B) stably expressed on HEK293 cells (human) (Q08345 19-913): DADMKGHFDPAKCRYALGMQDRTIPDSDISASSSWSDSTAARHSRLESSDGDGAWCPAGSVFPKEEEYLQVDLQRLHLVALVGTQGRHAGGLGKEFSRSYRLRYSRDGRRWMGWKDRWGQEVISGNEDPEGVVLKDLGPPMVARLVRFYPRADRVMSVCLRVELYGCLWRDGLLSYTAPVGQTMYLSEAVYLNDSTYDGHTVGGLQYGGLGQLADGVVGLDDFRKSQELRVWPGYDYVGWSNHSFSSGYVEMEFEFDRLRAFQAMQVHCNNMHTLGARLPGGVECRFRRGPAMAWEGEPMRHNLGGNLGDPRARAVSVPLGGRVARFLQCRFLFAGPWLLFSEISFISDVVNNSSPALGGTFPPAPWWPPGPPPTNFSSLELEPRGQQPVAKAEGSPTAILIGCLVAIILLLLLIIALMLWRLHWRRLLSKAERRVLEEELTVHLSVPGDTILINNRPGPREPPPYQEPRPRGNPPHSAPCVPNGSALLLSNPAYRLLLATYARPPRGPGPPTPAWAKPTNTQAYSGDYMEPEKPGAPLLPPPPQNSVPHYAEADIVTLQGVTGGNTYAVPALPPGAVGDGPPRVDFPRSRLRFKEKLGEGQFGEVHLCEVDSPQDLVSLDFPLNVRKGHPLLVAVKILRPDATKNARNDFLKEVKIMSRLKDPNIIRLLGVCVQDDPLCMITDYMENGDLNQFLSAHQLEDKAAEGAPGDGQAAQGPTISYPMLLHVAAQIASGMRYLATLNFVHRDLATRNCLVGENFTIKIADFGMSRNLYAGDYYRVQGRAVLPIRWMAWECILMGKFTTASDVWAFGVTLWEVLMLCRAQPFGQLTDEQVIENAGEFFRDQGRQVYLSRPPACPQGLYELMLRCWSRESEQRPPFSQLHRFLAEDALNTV
T3 sequence (Q08345 other isoform, or with tags, fused parts or gaps limits assumed): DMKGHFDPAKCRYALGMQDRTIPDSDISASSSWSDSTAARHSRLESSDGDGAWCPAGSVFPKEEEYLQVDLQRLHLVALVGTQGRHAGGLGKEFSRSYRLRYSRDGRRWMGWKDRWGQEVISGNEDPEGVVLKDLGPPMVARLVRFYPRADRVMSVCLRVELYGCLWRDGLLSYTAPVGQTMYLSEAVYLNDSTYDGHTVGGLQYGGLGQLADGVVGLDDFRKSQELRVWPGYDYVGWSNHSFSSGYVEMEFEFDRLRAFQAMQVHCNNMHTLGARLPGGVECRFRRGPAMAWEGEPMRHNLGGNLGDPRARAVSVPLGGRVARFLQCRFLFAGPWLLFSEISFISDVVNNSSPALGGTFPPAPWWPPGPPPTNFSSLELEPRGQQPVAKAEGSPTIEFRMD

Row | Kd [1] [nM] | Kd [2] [nM] | MFI [3] [MFI] | Kd [4] [nM] | MFI [5] [MFI] | MFI [6] [MFI] | MFI [7] [MFI] | Binder
1 | 0.181 | 0.154 | 1490 | 0.154 | 14400 | 5990 | 289 | AB2004 (antibody, V domains shown, mouse hybridoma mAb) VH: DVHLQESGPDLVKPSQSLSLTCTVTDYSITSGYGWHWIRQFPGNKLEWMGYIHYGGSTKYNSSLKSRISITRDTSKNQFFLQLKSVTTDDTGTYYCATSGNYGFAYWGQGTLVTVSA VL: DIVLTQSPTSLAVSLGQRATMSCRASESVDDYGTSFMHWYQQKPGQPPKLLIYRASNLESGIPARFSGSGSRADFTLSINPVEPDDVATYYCQQSNEDPFTFGSGTKLEIKR
2 | 0.398 | 0.431 | 1730 |  | 17800 | 6730 | 647 | AB2010 (antibody, V domains shown, mouse hybridoma mAb) VH: QVQLKQSGPGLVQPSQSLSITCTVSGFSFTGYGIHWVRQSPGKGLEWLGVIWSGGITDYNAAFISRLSISMDSSKGQVFFKMNSLQANDTAIYYCARRSTTVVADYAMDYWGQGTSVTVSS VL: SIVMTQTPKFLLVSAGDRVTITCKASQSVSNDVAWYQQKPGQSPKLLIYYASNRYTGVPDRFTGSGYGTDFTFTINTVQAEDLAVYFCQQDYTSPLTFGAGTKLELKR
3 | 0.205 | 0.346 | 1490 | 0.346 | 8020 | 4460 | 143 | AB2039 (antibody, V domains shown, mouse hybridoma mAb; also called AB0039) VH: EVQLVESGGGLVQPGGSLKFSCAASGFTFSSYGMSWVRQTPDKRLELVAIINSHGFSTYYPDSVKGRFTISRDNAKNTLYLQMSSLKSEDTAIYYCARGGYGNYGMDYWGQGTSVTVSS VL: DIVLTQSPASLAVSLGQRATISCRASESVDSYGNSFMHWYQQKVGQPPKLLIFRASNIESGIPARFSGSGSRTDFTLTINSVEADDVATYYCQQSNEAPYTFGGGTKLEIKR
4 | 0.617 | 0.561 | 1270 | 0.561 | 12500 | 2210 | 265 | AB2041 (antibody, V domains shown, mouse hybridoma mAb) VH: QVQLHQSGSELAKPGASVKMSCKASGYIFTTYWIHWLKQRPGQGLEWIGFINPDTDYTEYNQKFKDKATLTADKSSNTAYVQLSSLTSEDSAVYYCARGNYGYDGLVYWGLGTLVTVSA VL: SIVMTQTPKFLLVSAGDRVTITCKASQSVSTDVAWYQQKPGQSPKLLIYYASNRYTGVPDRFTGSGYGTDFTFTISTVQAEDLAVYFCQQDYNSYTFGGGTKLEIKR
5 | 0.554 | 0.374 | 1480 | 0.374 | 7490 | 4750 | 380 | AB2078 (antibody, V domains shown, mouse hybridoma mAb) VH: EIQLQQSGPELVNPGASVKVSCKASGYSFTDYNMYWVKQSHGKSLEWIGYIDPYNGGTSYNQKFKGKATLTVDKSSSTAFMHLNSLTSEDSAVYYCAREYYGSRLWYFDVWGAGTAVTVSS VL: DIVMTQSPSSLAMSVGQKVTMSCKSSQSLLNRNNQKNYLAWYQQKPGQSPKLLVYFASTRESGVPDRFIGSGSGTDFTLTLSSVRAEDLAENFCQQHYSTPFTFGSGTRLEIKR
6 | 0.275 | 0.287 | 1310 | 0.287 | 6020 | 3880 | 133 | AB2092 (antibody, V domains shown, mouse hybridoma mAb) VH: QIQLVQSGPELKKSGETVKISCKASGYTFTDYGMNWVKQAPGKGLKWMGWINTYTGKSTYADDFKGRFAFSLETSASTTYLQITNLKNEDMATYFCARWADYFGSSYLFASWGQGTLVTVSA VL: DVLMTQTPLSLPVSLGDQASISCRSSQSIVHSDGNTYLEWYLQKPGQSPKLLIYKVSNRFSGVPDRFSGSGSGTDFTLKISRVEAEDLGIYYCFQGSHVPWTFGGGTKLEIKR
